Measured values reported in US20260242478A1 (published 2026).
Where no end group is shown, it is not given here.

Tests used:
[1] = molecular target: anti-CD28 scFv (VH - linker 1 - VL) (biotinylated (site not given)); experiment: phage ELISA as before, wells pre-incubated with soluble CD28 (competitor)
[2] = molecular target: T1, Anti-CD28 scFv (VH - linker 1 - VL) (biotinylated (site not stated)); experiment: clonal phage ELISA on biotinylated anti-CD28 scFv captured on neutravidin plates, anti-M13 HRP detection;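 further: crude phage supernatants were used, and before phage were added the wells were pretreated with blocking buffer, either alone or with soluble CD28 protein, without washing in between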
[3] = molecular target: T1, Anti-CD28 scFv (VH - linker 1 - VL); experiment: clonal phage ELISA on captured anti-CD28 scFv, wells pre-incubated with soluble CD28 as competitor;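 further: crude phage supernatants used, bound phage read out via HRP-linked anti-M13 antibody, with comparison wells given blocking buffer lacking soluble CD28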
Procedure: (§1) Clonal phage were harvested as crude supernatants and screened via standard enzyme linked immunosorbent assays (ELISAs). […] Prior to the addition of clonal phage, wells were incubated with blocking buffer and CD28 soluble protein or blocking buffer alone. Without washing or aspirating, clonal phage supernatants were then added to the wells and incubated for a short time. Wells were then washed followed by detection of bound phage using a horse radish peroxidase conjugated anti-M13 antibody.

[4] = molecular target: T2, anti-CD28 scFv (VH - linker 1 - VL) (biotinylated (site not stated)); experiment: phage ELISA; biotinylated anti-CD28 scFv on neutravidin plate, clonal phage supernatant, anti-M13-HRP detection;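 further: before phage addition, wells were pretreated with soluble CD28 protein in blocking buffer, or with blocking buffer only as the comparison, then phage were added without washing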
[5] = molecular target: T2, anti-CD28 scFv (VH - linker 1 - VL); experiment: phage ELISA as above, wells pre-incubated with soluble CD28 (competitor);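 further: ELISA of crude clonal phage supernatants added to wells pre-treated with soluble CD28 in blocking buffer, bound phage read out with HRP-conjugated anti-M13 antibody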
Procedure: as §1

T2 sequence (scFv, as listed by the source): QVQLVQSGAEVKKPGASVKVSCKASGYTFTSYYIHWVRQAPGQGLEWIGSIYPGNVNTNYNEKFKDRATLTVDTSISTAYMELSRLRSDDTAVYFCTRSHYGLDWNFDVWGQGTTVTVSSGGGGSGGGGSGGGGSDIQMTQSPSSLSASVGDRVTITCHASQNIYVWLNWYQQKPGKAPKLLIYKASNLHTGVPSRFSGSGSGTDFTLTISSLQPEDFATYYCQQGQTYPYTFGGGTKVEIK
T1 sequence (scFv, as listed by the source): as above
Sequence of anti-CD28 scFv (VH - linker 1 - VL) (biotinylated (site not given)) (scFv, as listed by the source): as above

Binder	CD28 scFv signal in presence of CD28 [1]	CD28 scFv signal [2]	CD28 scFv signal in presence of CD28 [3]	CD28 scFv signal [4]	CD28 scFv signal in presence of CD28 [5]
MDWCPMYLWNECFS (tested as crude clonal phage supernatant; not shown: pIII of the bacteriophage to which the peptide is fused) [Phage-80, clonal phage peptide MDWCPMYLWNECFS]	0.411				
MDWCPRFLWSVCFN (tested as crude clonal phage supernatant; not shown: pIII of the bacteriophage to which the peptide is fused) [Phage-81, clonal phage peptide …]	1.15				
MDWCPRHLWDECFF (tested as crude clonal phage supernatant) [Phage-118]		2.46	0.663		
MDWCPRFLWDECFF (tested as crude clonal phage supernatant; also called position 7 is F in the position column) [Phage-133]		2.28	0.246		
MDWCPRYLWHMCYS (tested as crude clonal phage supernatant) [Phage-119]		2.42	1.17		
MDWCPRDLWHACFS (tested as crude clonal phage supernatant) [Phage-120]		2.41	0.173		
MDWCPRDLWHVCFF (tested as crude clonal phage supernatant) [Phage-121]		2.41	0.268		
MDWCPRDLWDQCYA (tested as crude clonal phage supernatant) [Phage-122]		2.41	0.201		
MDWCPIHLWNECFA (tested as crude clonal phage supernatant) [Phage-123]		2.4	0.203		
MDWCPRPLWDMCFF (tested as crude clonal phage supernatant) [Phage-124]		2.4	0.138		
MDWCPVSLWHVCFY (tested as crude clonal phage supernatant) [Phage-125]		2.4	0.409		
MDWCPRFLWNECFN (tested as crude clonal phage supernatant) [Phage-126]		2.4	0.503		
MDWCPRALWNECFA (tested as crude clonal phage supernatant) [Phage-127]		2.38	0.375		
MDWCPRDLWIECFF (tested as crude clonal phage supernatant) [Phage-128]		2.37	0.137		
MDWCPSYLWTVCFA (tested as crude clonal phage supernatant) [Phage-129]		2.34	0.096		
MDWCPRYLWDACFF (tested as crude clonal phage supernatant) [Phage-130]		2.34	0.168		
MDWCPRSLWIYCFN (tested as crude clonal phage supernatant) [Phage-131]		2.34	0.401		
MDWCPTYLWFECFN (tested as crude clonal phage supernatant) [Phage-132]		2.33	0.224		
MDWCPSYLWHECFA (tested as crude clonal phage supernatant) [Phage-134]		2.28	0.198		
MDWCPKFLWHECFS (tested as crude clonal phage supernatant; also called position 7 is F in the position column) [Phage-135]		2.28	0.142		
MHWCPIYLWDECFN (tested as crude clonal phage supernatant) [Phage-136]		2.23	0.193		
MDWCPRYLWHECFH (tested as crude clonal phage supernatant) [Phage-137]		2.19	0.308		
MDWCPTNLWHECFA (tested as crude clonal phage supernatant) [Phage-138]		2.16	0.096		
MDWCPRDLWDVCFA (tested as crude clonal phage supernatant) [Phage-139]		2.16	0.28		

Binder	CD28 scFv signal in presence of CD28 [1]	CD28 scFv signal [2]	CD28 scFv signal in presence of CD28 [3]	CD28 scFv signal [4]	CD28 scFv signal in presence of CD28 [5]
MDWCPMDLWDVCFN (tested as crude clonal phage supernatant) [Phage-140]		2.15	0.263		
MDWCPRSLWNVCFF (tested as crude clonal phage supernatant) [Phage-141]		2.13	0.356		
MDWCPVILWDFCFN (tested as crude clonal phage supernatant; also called position 11 is F in the position column) [Phage-142]		2.03	0.173		
LDWCPLNLWDLCYF (tested as crude clonal phage supernatant) [Phage-143]		2.03	0.095		
MDWCPRHLWYACFN (tested as crude clonal phage supernatant) [Phage-144]		2.01	0.159		
MDWCPKHLWIECFA (peptide, not shown: large carriers, cysteine pairing not given here; also: fused to phage pIII protein, pIII and linker sequence not given here, Clonal phage of the Peptide-9 library) [Phage-145]				1.98	0.132
MDWCPRHLWSECFY (peptide, not shown: large carriers, cysteine pairing not given here; also: fused to phage pIII protein, pIII and linker sequence not given here, Clonal phage of the Peptide-9 library) [Phage-146]				1.92	0.199
MHWCPRDLWVVCFN (peptide, not shown: large carriers, cysteine pairing not given here; also: fused to phage pIII protein, pIII and linker sequence not given here, Clonal phage of the Peptide-9 library) [Phage-147]				1.83	0.112
MHWCPEYLWNECFA (peptide, not shown: large carriers, cysteine pairing not given here; also: displayed as fusion to phage pIII, linker and pIII sequence not given here, Clonal phage of the Peptide-9 library) [Phage-148]				1.69	0.092
MDWCPRDLWNVCFA (peptide, not shown: large carriers, Clonal phage of the Peptide-9 library) [Phage-154]				1.38	0.145
MDWCPRDLWAVCFA (peptide, not shown: large carriers, Clonal phage of the Peptide-9 library) [Phage-149]				1.67	0.089
MDWCPRDLWNVCFN (peptide, not shown: large carriers, cysteine pairing not given here; also: displayed as fusion to phage pIII, linker and pIII sequence not given here, Clonal phage of the Peptide-9 library) [Phage-169]				0.74	0.108
MDWCPRHLWNVCFS (peptide, not shown: large carriers, Clonal phage of the Peptide-9 library) [Phage-150]				1.61	0.176
MDFCPISLWHECFF (peptide, not shown: large carriers, Clonal phage of the Peptide-9 library) [Phage-151]				1.58	0.129
MDWCPKYLWDKCFH (peptide, not shown: large carriers, Clonal phage of the Peptide-9 library) [Phage-152]				1.54	0.109
MDWCPRHLWDLCFA (peptide, not shown: large carriers, cysteine pairing not given here; also: displayed as fusion to phage pIII, linker and pIII sequence not given here, Clonal phage of the Peptide-9 library) [Phage-166]				0.925	0.096
MDWCPRHLWDLCFF (peptide, not shown: large carriers, Clonal phage of the Peptide-9 library) [Phage-153]				1.4	0.182
MDWCPRHLWDQCFA (peptide, not shown: large carriers, Clonal phage of the Peptide-9 library) [Phage-161]				1.12	0.144
MHWCPLHLWNECYH (peptide, not shown: large carriers, Clonal phage of the Peptide-9 library) [Phage-155]				1.37	0.113
MDWCPKHLWHQCFH (peptide, not shown: large carriers, Clonal phage of the Peptide-9 library) [Phage-156]				1.35	0.108
MDWCPRSLWSYCFH (peptide, not shown: large carriers, Clonal phage of the Peptide-9 library) [Phage-157]				1.33	0.152
MDWCPRYLWTECFF (peptide, not shown: large carriers, Clonal phage of the Peptide-9 library) [Phage-158]				1.26	0.244
MAWCPMNLWDQCFF (peptide, not shown: large carriers, Clonal phage of the Peptide-9 library) [Phage-159]				1.2	0.145
MHWCPRALWHECFN (peptide, not shown: large carriers, Clonal phage of the Peptide-9 library) [Phage-160]				1.18	0.144
